Source: article doi:10.1101/2025.10.13.682238

Molecular target: GST tag (glutathione S-transferase affinity tag, free in the ATAD2B sample)
Test: SEC; Superdex 200 Increase 10/300 GL on an ÄktaPrime system, ATAD2B sample from E. coli compared with a molecular weight standard mixture (thyroglobulin 670 kDa, ovalbumin 44 kDa)

Chain of GST tag (glutathione S-transferase affinity tag, free in the ATAD2B sample) (P08515 2-218): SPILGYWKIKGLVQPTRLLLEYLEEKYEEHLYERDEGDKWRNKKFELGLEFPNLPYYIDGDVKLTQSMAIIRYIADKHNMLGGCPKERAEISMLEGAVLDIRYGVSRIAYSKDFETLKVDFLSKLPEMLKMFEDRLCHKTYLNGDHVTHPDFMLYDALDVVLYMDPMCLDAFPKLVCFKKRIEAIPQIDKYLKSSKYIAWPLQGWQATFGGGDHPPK

stoichiometry N: 2
Substance: GST tag (glutathione S-transferase affinity tag, free in the ATAD2B sample) (natural protein)
